From publication PMC8298264, “Function of cofactor Akirin2 in the regulation of gene expression in model human neutrophil-like HL60 cells” (Bioscience Reports, 2021)

B1: sp¦Q13451¦FKBP5_HUMAN (protein, UniProt Q13451 1-457, looked up)
Peptidyl-prolyl cis-trans …: MTTDEGAKNNEESPTATVAEQGEDITSKKDRGVLKIVKRVGNGEETPMIGDKVYVHYKGKLSNGKKFDSSHDRNEPFVFSLGKGQVIKAWDIGVATMKKGEICHLLCKPEYAYGSAGSLPKIPSNATLFFEIELLDFKGEDLFEDGGIIRRTKRKGEGYSNPNEGATVEIHLEGRCGGRMFDCRDVAFTVGEGEDHDIPIGIDKALEKMQREEQCILYLGPRYGFGEAGKPKFGIEPNAELIYEVTLKSFEKAKESWEMDTKEKLEQAAIVKEKGTVYFKGGKYMQAVIQYGKIVSWLEMEYGLSEKESKASESFLLAAFLNLAMCYLKLREYTKAVECCDKALGLDSANEKGLYRRGEAQLLMNEFESAKGDFEKVLEVNPQNKAARLQISMCQKKAKEHNERDRRIYANMFKKFAEQDAKEEANKAMGKKTSEGVTNEKGTDSQAMEEEKPEGHV
B2: sp¦Q6IBS0¦TWF2_HUMAN (protein, UniProt Q6IBS0 2-349, looked up)
Twinfilin-2: AHQTGIHATEELKEFFAKARAGSVRLIKVVIEDEQLVLGASQEPVGRWDQDYDRAVLPLLDAQQPCYLLYRLDSQNAQGFEWLFLAWSPDNSPVRLKMLYAATRATVKKEFGGGHIKDELFGTVKDDLSFAGYQKHLSSCAAPAPLTSAERELQQIRINEVKTEISVESKHQTLQGLAFPLQPEAQRALQQLKQKMVNYIQMKLDLERETIELVHTEPTDVAQLPSRVPRDAARYHFFLYKHTHEGDPLESVVFIYSMPGYKCSIKERMLYSSCKSRLLDSVEQDFHLEIAKKIEIGDGAELTAEFLYDEVHPKQHAFKQAFAKPKGPGGKRGHKRLIRGPGENGDDS
B3: sp¦P34897¦GLYM_HUMAN (protein, UniProt P34897 30-504, looked up)
Serine …: NAAQTQTGEANRGWTGQESLSDSDPEMWELLQREKDRQCRGLELIASENFCSRAALEALGSCLNNKYSEGYPGKRYYGGAEVVDEIELLCQRRALEAFDLDPAQWGVNVQPYSGSPANLAVYTALLQPHDRIMGLDLPDGGHLTHGYMSDVKRISATSIFFESMPYKLNPKTGLIDYNQLALTARLFRPRLIIAGTSAYARLIDYARMREVCDEVKAHLLADMAHISGLVAAKVIPSPFKHADIVTTTTHKTLRGARSGLIFYRKGVKAVDPKTGREIPYTFEDRINFAVFPSLQGGPHNHAIAAVAVALKQACTPMFREYSLQVLKNARAMADALLERGYSLVSGGTDNHLVLVDLRPKGLDGARAERVLELVSITANKNTCPGDRSAITPGGLRLGAPALTSRQFREDDFRRVVDFIDEGVNIGLEVKSKTAKLQDFKSFLLKDSETSQRLANLRQRVEQFARAFPMPGFDEH
B4: sp¦Q04837¦SSBP_HUMAN (protein, UniProt Q04837 17-148, looked up)
Single-stranded DNA-binding …: ESETTTSLVLERSLNRVHLLGRVGQDPVLRQVEGKNPVTIFSLATNEMWRSGDSEVYQLGDVSQKTTWHRISVFRPGLRDVAYQYVKKGSRIYLEGKIDYGEYMDKNNVRRQATTIIADNIIFLSDQTKEKE
B5: sp¦B0I1T2¦MYO1G_HUMAN (protein, UniProt B0I1T2 1-1018, looked up)
Unconventional myosin-Ig: MEDEEGPEYGKPDFVLLDQVTMEDFMRNLQLRFEKGRIYTYIGEVLVSVNPYQELPLYGPEAIARYQGRELYERPPHLYAVANAAYKAMKHRSRDTCIVISGESGAGKTEASKHIMQYIAAVTNPSQRAEVERVKDVLLKSTCVLEAFGNARTNRNHNSSRFGKYMDINFDFKGDPIGGHIHSYLLEKSRVLKQHVGERNFHAFYQLLRGSEDKQLHELHLERNPAVYNFTHQGAGLNMTVHSALDSDEQSHQAVTEAMRVIGFSPEEVESVHRILAAILHLGNIEFVETEEGGLQKEGLAVAEEALVDHVAELTATPRDLVLRSLLARTVASGGRELIEKGHTAAEASYARDACAKAVYQRLFEWVVNRINSVMEPRGRDPRRDGKDTVIGVLDIYGFEVFPVNSFEQFCINYCNEKLQQLFIQLILKQEQEEYEREGITWQSVEYFNNATIVDLVERPHRGILAVLDEACSSAGTITDRIFLQTLDMHHRHHLHYTSRQLCPTDKTMEFGRDFRIKHYAGDVTYSVEGFIDKNRDFLFQDFKRLLYNSTDPTLRAMWPDGQQDITEVTKRPLTAGTLFKNSMVALVENLASKEPFYVRCIKPNEDKVAGKLDENHCRHQVAYLGLLENVRVRRAGFASRQPYSRFLLRYKMTCEYTWPNHLLGSDKAAVSALLEQHGLQGDVAFGHSKLFIRSPRTLVTLEQSRARLIPIIVLLLQKAWRGTLARWRCRRLRAIYTIMRWFRRHKVRAHLAELQRRFQAARQPPLYGRDLVWPLPPAVLQPFQDTCHALFCRWRARQLVKNIPPSDMPQIKAKVAAMGALQGLRQDWGCRRAWARDYLSSATDNPTASSLFAQRLKTLQDKDGFGAVLFSSHVRKVNRFHKIRNRALLLTDQHLYKLDPDRQYRVMRAVPLEAVTGLSVTSGGDQLVVLHARGQDDLVVCLHRSRPPLDNRVGELVGVLAAHCQGEGRTLEVRVSDCIPLSHRGVRRLISVEPRPEQPEPDFRCARGSFTLLWPSR
B6: sp¦Q86Y56¦DAAF5_HUMAN (protein, UniProt Q86Y56 2-855, looked up)
Dynein axonemal assembly …: AALGVAEAVAAPHPAEGAETAEAVELSRALSRLLPGLEADSKPGRRRALEALRRALEEPGPAADPTAFQGPWARLLLPRLLRCLSDPAEGCRALAVHLLDLGLRRAARPRDALPRLLPALAARLAGPVPARRPPEACEELRLALVQLLGLAVDLCGAALAPHLDDALRALRCSLLDPFAAVRRESCSCAAALAQATPDHFHMQSESLIGPLMQTISHQHWKVRVAAIEATGAVIHFGNGKSVDDVLSHFAQRLFDDVPQVRRAVASVVGGWLLCLRDRYSFFHKLIPLLLSSLNDEVPEVRQLAASLWEDVGLQWQKENEEDLKDKLDFAPPTPPHYPPHERRPVLGCRELVFRNLSKILPALCHDITDWVVGTRVKSAQLLPVLLLHAEDHATQHLEVVLRTLFQACTDEEAAVVQSCTRSAELVGTFVSPEVFLKLILSTLKKTPSASGLLVLASAMRGCPREALQPHLAAIATELAQAHICQASENDLYLERLLLCVQALVSVCHEDCGVASLQLLDVLLTIVALAGATGLRDKAQETMDSLAMVEGVSSCQDLYRKHIGPLLERVTASHLDWTAHSPELLQFSVIVAQSGPALGEALPHVVPTLRACLQPSQDPQMRLKLFSILSTVLLRATDTINSQGQFPSYLETVTKDILAPNLQWHAGRTAAAIRTAAVSCLWALTSSEVLSAEQIRDVQETLMPQVLTTLEEDSKMTRLISCRIINTFLKTSGGMTDPEKLIRIYPELLKRLDDVSNDVRMAAASTLVTWLQCVKGANAKSYYQSSVQYLYRELLVHLDDPERAIQDAILEVLKEGSGLFPDLLVRETEAVIHKHRSATYCEQLLQHVQAVPATQ
B7: sp¦P13995¦MTDC_HUMAN (protein, UniProt P13995 36-350, looked up)
Bifunctional …: EAVVISGRKLAQQIKQEVRQEVEEWVASGNKRPHLSVILVGENPASHSYVLNKTRAAAVVGINSETIMKPASISEEELLNLINKLNNDDNVDGLLVQLPLPEHIDERRICNAVSPDKDVDGFHVINVGRMCLDQYSMLPATPWGVWEIIKRTGIPTLGKNVVVAGRSKNVGMPIAMLLHTDGAHERPGGDATVTISHRYTPKEQLKKHTILADIVISAAGIPNLITADMIKEGAAVIDVGINRVHDPVTAKPKLVGDVDFEGVRQKAGYITPVPGGVGPMTVAMLMKNTIIAAKKVLRLEEREVLKSKELGVATN
B8: sp¦Q9UIG0¦BAZ1B_HUMAN (protein, UniProt Q9UIG0 1-1483, looked up)
Tyrosine-protein kinase BAZ1B: MAPLLGRKPFPLVKPLPGEEPLFTIPHTQEAFRTREEYEARLERYSERIWTCKSTGSSQLTHKEAWEEEQEVAELLKEEFPAWYEKLVLEMVHHNTASLEKLVDTAWLEIMTKYAVGEECDFEVGKEKMLKVKIVKIHPLEKVDEEATEKKSDGACDSPSSDKENSSQIAQDHQKKETVVKEDEGRRESINDRARRSPRKLPTSLKKGERKWAPPKFLPHKYDVKLQNEDKIISNVPADSLIRTERPPNKEIVRYFIRHNALRAGTGENAPWVVEDELVKKYSLPSKFSDFLLDPYKYMTLNPSTKRKNTGSPDRKPSKKSKTDNSSLSSPLNPKLWCHVHLKKSLSGSPLKVKNSKNSKSPEEHLEEMMKMMSPNKLHTNFHIPKKGPPAKKPGKHSDKPLKAKGRSKGILNGQKSTGNSKSPKKGLKTPKTKMKQMTLLDMAKGTQKMTRAPRNSGGTPRTSSKPHKHLPPAALHLIAYYKENKDREDKRSALSCVISKTARLLSSEDRARLPEELRSLVQKRYELLEHKKRWASMSEEQRKEYLKKKREELKKKLKEKAKERREKEMLERLEKQKRYEDQELTGKNLPAFRLVDTPEGLPNTLFGDVAMVVEFLSCYSGLLLPDAQYPITAVSLMEALSADKGGFLYLNRVLVILLQTLLQDEIAEDYGELGMKLSEIPLTLHSVSELVRLCLRRSDVQEESEGSDTDDNKDSAAFEDNEVQDEFLEKLETSEFFELTSEEKLQILTALCHRILMTYSVQDHMETRQQMSAELWKERLAVLKEENDKKRAEKQKRKEMEAKNKENGKVENGLGKTDRKKEIVKFEPQVDTEAEDMISAVKSRRLLAIQAKKEREIQEREMKVKLERQAEEERIRKHKAAAEKAFQEGIAKAKLVMRRTPIGTDRNHNRYWLFSDEVPGLFIEKGWVHDSIDYRFNHHCKDHTVSGDEDYCPRSKKANLGKNASMNTQHGTATEVAVETTTPKQGQNLWFLCDSQKELDELLNCLHPQGIRESQLKERLEKRYQDIIHSIHLARKPNLGLKSCDGNQELLNFLRSDLIEVATRLQKGGLGYVEETSEFEARVISLEKLKDFGECVIALQASVIKKFLQGFMAPKQKRRKLQSEDSAKTEEVDEEKKMVEEAKVASALEKWKTAIREAQTFSRMHVLLGMLDACIKWDMSAENARCKVCRKKGEDDKLILCDECNKAFHLFCLRPALYEVPDGEWQCPACQPATARRNSRGRNYTEESASEDSEDDESDEEEEEEEEEEEEEDYEVAGLRLRPRKTIRGKHSVIPPAARSGRRPGKKPHSTRRSQPKAPPVDDAEVDELVLQTKRSSRRQSLELQKCEEILHKIVKYRFSWPFREPVTRDEAEDYYDVITHPMDFQTVQNKCSCGSYRSVQEFLTDMKQVFTNAEVYNCRGSHVLSCMVKTEQCLVALLHKHLPGHPYVRRKRKKFPDRLAEDEGDSEPEAVGQSRGRRQKK

These molecules were tested on human HL60 cells (assay: SWATH-MS proteomics, differential protein representation, akirin2 KO vs WT HL60 cells). Details: akirin2 KO vs WT HL60 cells; sheet "Under-represented in KO".
Assay type: cell-based
In short: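 Three biological replicates per genotype; 150 µg protein FASP/trypsin digested; IDA library (3 µg digest); SWATH variable windows, 5 µg/sample, 3.6 s cycle; gradient 5–30% B 120 min then 30–60% B 15 min; 1% global FDR; TAS normalization.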

In order of falling “Fold Change” value:
1. B8  0.6821
2. B7  0.682
3. B5  0.6785
4. B4  0.6781
5. B3  0.6722
6. B2  0.6717
7. B1  0.6681
8. B6  0.3018

In order of rising “Log (Fold Change)” value:
1. B6  -0.5202
2. B1  -0.1751
3. B2  -0.1728
4. B3  -0.1725
5. B4  -0.1687
6. B5  -0.1685
7. B7  -0.1662
8. B8  -0.1661
